Reference: the supplement of paper PMC10567573
± gives the standard deviation.

Experiment: protein stability index of a GFP-peptide fusion (GPS, HEK-293T) (PSI 1-6); higher = more stable
[1] = treatment: DMSO, c terminus: native
[2] = treatment: MLN4924 1 uM, 8 h, c terminus: native
[3] = treatment: DMSO, c terminus: a fixed tail appended
[4] = treatment: MLN4924 1 uM, 8 h, c terminus: a fixed tail appended
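Note: 24-mer peptide tiles fused after GFP, lentivirally expressed, FACS-sorted into six equal bins by GFP/DsRed ratio, decoded by Illumina sequencing, PSI is the read-weighted mean bin number.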

Sequence	protein stability index [1]	protein stability index [2]	protein stability index [3]	protein stability index [4]
FARYPNGVVVHYFCSKEVNPADT [VPS39]	2.4 ± 0.22	2.27 ± 0.18	–	–
FCYCAGSHKRKRSSGSFCYCHPDS [GMCL1]	–	–	2.56 ± 0.73	3.19 ± 0.61
FDQLKQFLTFDKQVLRFYAIWDDT [EFHC1]	–	–	2.31 ± 0.2	2.13 ± 0.33
FEAYAKICDPGLTSFEPEALGNLV [CAMK2B]	–	–	2.71 ± 0.37	2.76 ± 0.32
FEFLYNALEFWRQEELTRINQSFT [IQUB]	–	–	2.13 ± 0.54	2.45 ± 0.74
FFKGIDQDIERGVQSEIFLHESYC [LYSMD4]	–	–	2.58 ± 0.27	2.35 ± 0.19
FFLFIGVILFSSAVYFAEAEEAES [KCNA1]	–	–	2.81 ± 0.18	2.78 ± 0.34
FFVITMIKIVLINSFGAILQGSLF [SLC29A1]	–	–	3.36 ± 0.093	2.99 ± 0.12
FHNLVSLNLNYNCISDELLENLCE [FBXO39]	–	–	2.6 ± 0.18	2.66 ± 0.3
FKLFFNGRPGIVAWTLINLSFAAK [DHCR7]	–	–	3.03 ± 0.28	2.46 ± 0.31
FLDILRRADKNDDGKLSFEEFKAY [NECAB1]	–	–	2.83 ± 0.23	2.93 ± 0.34
FLENLDKSRKGELLKKSDLQKDF [PRIM1]	4.7 ± 0.24	5.154 ± 0.05	–	–
FLMRKCGWFVRELRVEFAAENYLS [FBXO33]	–	–	3.06 ± 0.59	2.8 ± 0.35
FLQQSLERVYSLQHLDPQGAQELL [INTS4]	–	–	1.91 ± 0.42	2.76 ± 0.54
FPREHQFFEDGDVQRHLYLQDVIM [ZNF511]	–	–	2.45 ± 0.085	2.78 ± 0.28
FQKGQVTRDGFKLVMASLYHIYVA [HMOX1]	–	–	2.83 ± 0.49	3.12 ± 0.97
FQTLQAIVSHFQKLFDVPSLNGVY [CEP70]	–	–	2.36 ± 0.36	2.36 ± 0.4
FRDPIWSTWALYGRAVDQDKVLRF [MYORG]	–	–	2.12 ± 0.39	2.11 ± 0.15
FSDSSLIEDSQALHKRPKLDSEYY [LURAP1L]	–	–	3.86 ± 0.35	3.9 ± 0.21
FSPAKPKPSKELKPLLGSAVLGLL [MYORG]	–	–	2.15 ± 0.53	2.21 ± 0.17
FSPDGPSRFRKAYKPEQPLVRLRG [LOXL2]	–	–	2.5 ± 0.58	3.39 ± 0.68
FTDFNATSALFWEQHDLVYGDWTS [CLPTM1]	–	–	2.29 ± 0.67	2.53 ± 0.27
FTRKTLAEKKQELDKLRNEWASHT [SASS6]	–	–	3.15 ± 0.47	3.77 ± 0.6

Sequence	protein stability index [1]	protein stability index [2]	protein stability index [3]	protein stability index [4]
FVERVRKRGFEVVYMTEPIDEYCV [HSP90AB1]	–	–	–	2.53 ± 0.26
FVLLCFAIGALLVCYHYYADWFMS [TMEM40]	–	–	2.16 ± 0.31	2.19 ± 0.39
FVSKIRAVINDIANLPVPTIAAID [AUH]	–	–	2.42 ± 1.6	2.04 ± 0.54
GAAGRSQEPEVPCAAVLPGKPGDR [RSPH3]	–	–	5.31 ± 0.29	5.31 ± 0.2
GAGLLSSISELKHALSGHAKVKPF [TPH1]	–	–	2.86 ± 0.095	3.02 ± 0.12
GALQIEQSEESDQGKYECVATNSA [PTPRD]	–	–	5.18 ± 0.097	5.39 ± 0.31
GDRLNVEVDAAPPVDLNKILEDMR [KRT36]	–	–	4.24 ± 0.4	4.323 ± 0.035
GEEQTQNPYTELLVLKAHHDIVRF [WDR41]	–	–	2.51 ± 0.32	2.79 ± 0.3
GEHKDRIERQWGNLLGEGQHKCDE [ZSCAN9]	–	–	4.88 ± 0.4	4.93 ± 0.14
GEVEEEADSCFGDDEDDSGTEES [CDC34]	5.25 ± 0.37	5.29 ± 0.15	–	–
GFRYSERYDPEPKSKWDEEWDKNK [CLINT1]	–	–	3.73 ± 0.24	3.78 ± 0.29
GFYFEVCGMMVESVNAKTLMSRI [PCDHGA10]	2.81 ± 0.26	2.41 ± 1	–	–
GGGDEDGSLGSRAEPAPRAREGGG [SMAD6]	–	–	5.55 ± 0.17	5.51 ± 0.4
GGGMRVCGFGGGAGSVFGGGFGGG [KRT15]	–	–	2.03 ± 0.33	1.94 ± 0.24
GGKGHHLPSENLGKEPLDPDPSHS [TOR1AIP2]	–	–	5.456 ± 0.051	5.15 ± 0.14
GGPGGPGSDKQQQQQHIECVVCGD [NR2F2]	–	–	5.02 ± 0.21	5.02 ± 0.45
GGSSTSERCLLNNSLWKKNKTICK [NLN]	–	–	3.44 ± 0.16	3.47 ± 0.33
GGVCCTVTLNFNVPGEFKQDVTVV [GFOD1]	–	–	2.94 ± 0.25	2.99 ± 0.16
GHGEPDVLKDELQLYGDAPGEVVP [TMEM40]	–	–	5.36 ± 0.07	5.35 ± 0.23
GHQPGTGPGDGPPEIAQNFSAPDP [SMTNL2]	–	–	5.23 ± 0.098	5.46 ± 0.15
GHSPARAGKQRMKEKEQENERKVA [DDIT3]	–	–	5.39 ± 0.4	5.43 ± 0.37
GHVEMVNLLLAKGANINAFDKKDR [ANKRD44]	–	–	3.41 ± 0.19	3.38 ± 0.3
GIAILVGSNDRVQGVISQLEDTCK [TRIM55]	–	–	2.3 ± 0.15	2.43 ± 0.37

Sequence	protein stability index [1]	protein stability index [2]	protein stability index [3]	protein stability index [4]
GIELMEVDPIGHLYIFATCLGLSY [MAGEA3]	–	–	2.72 ± 0.9	2.85 ± 1.2
GIGHKVDAVFMKDGFFYFFHGTRQ [MMP1]	–	–	2.4 ± 0.94	2.13 ± 0.23
GIHLALVELLKNLTKYPTDRDSIW [INTS4]	–	–	2.77 ± 0.72	2.75 ± 1
GILTFLAVLGRYVPGLLLSYLMLV [RETREG3]	–	–	3.42 ± 0.28	2.95 ± 0.72
GIPNAIISVEGINHDIRTANDGDY [CPXM2]	–	–	4.55 ± 0.2	4.71 ± 0.16
GKAVVSHSKGHKSSRQEKRPLCAQ [ELOA2]	–	–	4.61 ± 0.29	4.64 ± 0.44
GKELAGTMDGEGTLFQTESPQSGS [PBXIP1]	–	–	5.42 ± 0.43	5.38 ± 0.17
GKEVKVNWATTPSSQKKDTSSSTV [TIA1]	–	–	4.76 ± 0.21	4.92 ± 0.36
GKVLGKGGFAKCYEMTDLTNNKVY [PLK2]	–	–	2.73 ± 0.11	2.87 ± 0.34
GLDGYRGYSLADWVCLAYFTSGFN [SPACA3]	–	–	3.1 ± 1.2	2.81 ± 0.7
GLGVLRALGSRGWEPFDWGRLLEA [FANCE]	–	–	2.88 ± 0.2	2.47 ± 0.042
GLVPSEKPPMMPQAQPAIPRPNRL [C2CD2L]	–	–	4.65 ± 0.21	4.47 ± 0.068
GNFQGIRFHYDRNPGTDAVAQTSL [FATE1]	–	–	3.38 ± 0.22	3.42 ± 0.16
GNLGSLEKSVTKDAEGLAARDVQK [INTS4]	–	–	5.46 ± 0.089	5.42 ± 0.12
GNNEDVSFSRPADLDLIQSTPFKP [MFF]	–	–	4.36 ± 0.059	5.06 ± 0.56
GPLPPAPAMVRISKPKTFQAYLDD [YPEL3]	–	–	3.73 ± 0.18	4.33 ± 0.37
GPVQVVLVQKDQHSFELDEKALAS [ATL3]	–	–	3.65 ± 0.18	4.06 ± 0.2
GQGLKSYMTKPSKSLLPHLKTGNS [RTP4]	–	–	3.62 ± 0.16	3.63 ± 0.25
GRAENGERSDLEEDNEREGTENGA [ZC3H15]	–	–	5.57 ± 0.068	5.57 ± 0.16
GRPIPGTSTRYEQPKCDNTARAHP [SMOC2]	–	–	4.76 ± 0.4	4.78 ± 0.18
GRSRLYHDGKNQPGVAYPAFLGPD [SPSB4]	–	–	3.84 ± 0.23	3.78 ± 0.19
GSDLGGPLPTDPMLGLALGGLVVS [TSPAN10]	–	–	2.88 ± 0.2	2.66 ± 0.19
GSEMGLSSHLQSSKAGPTRIFTSN [KLHL13]	–	–	3.78 ± 0.17	3.77 ± 0.23

Sequence	protein stability index [1]	protein stability index [2]	protein stability index [3]	protein stability index [4]
GSIGVWHYICPRLGGIGFSSCIVC [SLC6A17]	–	–	2.58 ± 0.054	2.41 ± 1.2
GSKNVFSTFRTPAVLFTGIVALYI [ATL3]	–	–	3.11 ± 0.7	2.67 ± 0.57
GSRAGASSFSDPFFVVETLCIIWF [KCNA3]	–	–	3.04 ± 0.93	2.53 ± 0.75
GSRLAEFGAAGVNRLSIGLQSLDD [RSAD1]	–	–	4.22 ± 0.48	4.09 ± 0.34
GTLLFYIGGHLVRDNDHPDHSSRE [FUT8]	–	–	2.3 ± 0.59	2.55 ± 0.58
GTLTPRMTTDFDLSLDNSPLLQSI [TRIM9]	–	–	3.43 ± 0.28	3.48 ± 0.36
GTYSQALNDAKRELRFLLVYLHGD [FAF2]	–	–	2.41 ± 0.47	2.16 ± 0.32
GVIATKQFSRGDFVVEYHGDLIEI [KMT5A]	–	–	2.37 ± 0.31	1.68 ± 0.17
GYLDYRKKAIKDLGISPSTCSFNP [GLT8D2]	–	–	2.85 ± 0.22	2.89 ± 0.34
GYLLSFHTPGGQNQEILLPGGITS [TNXB]	–	–	2 ± 0.36	2 ± 0.41
GYPVSSAFAFQNTFPHSISAKNTS [SASS6]	–	–	3.19 ± 0.43	3.37 ± 0.21
HEDLLTRIGEATKPDGTVEQIGHI [NET1]	–	–	4.95 ± 0.13	4.93 ± 0.17
HELTAKYLNYYQGMLDVADESLTD [P3H4]	–	–	4.01 ± 0.3	3.89 ± 0.48
HGLWDSLVYDVEVKSHLLDYVMTT [TRIP13]	–	–	2.28 ± 0.32	2.2 ± 0.34
HGPISEVLLIKDRTSKSRGFAFIT [RBMY1A1]	–	–	2.83 ± 0.36	2.66 ± 0.91
HILAKNYFSQVPVLASFILDDGEI [IQUB]	–	–	2.2 ± 0.51	1.96 ± 0.42
HKESKMTIFEKENFIGRQWEISDD [CRYBA1]	–	–	4.13 ± 0.4	4.07 ± 0.3
HLNAIRGLPGSFIKEVQKGGPADL [PDZK1]	–	–	3.56 ± 0.34	3.99 ± 0.19
HNLVVACEIQVRTLASAGGPDNLV [ADD1]	–	–	2.51 ± 0.51	2.38 ± 0.52
HNRYTENSLRGVILDIHFLSQADF [FUT8]	–	–	2.55 ± 0.67	2.41 ± 0.43
